From patent US20220242946A1 (Johns Hopkins, published 2022)
Read-outs that look alike come from different tables or passages of the source.

Experiments:
[1] = biological target: human IL-2 (residues 1-133) displayed on the surface of yeast (human, UniProt P60568 21-153); assay: titration of soluble antibody on yeast-displayed hIL-2, flow cytometry; apparent bivalent affinity
Method: After a final wash, cells were analyzed for antibody binding using a CytoFLEX flow cytometer (Beckman Coulter). Background-subtracted and normalized binding curves were fitted to a first-order binding model and equilibrium dissociation constant (KD) values were determined using GraphPad Prism.
After a 3-day incubation, secreted protein was captured from the supernatant with protein G resin, eluted with 0.1 M glycine pH 2.0, and analyzed via SDS-PAGE. […] Immunocytokine expression was scaled up in HEK 293F cells and the secreted protein was purified via protein G affinity chromatography followed by size-exclusion chromatography.

[2] = biological target: T1, biotinylated human IL-2 immobilized on streptavidin-coated tips (human, UniProt P60568 21-153, biotinylated (site not stated)); assay: bio-layer interferometry equilibrium titration, biotinylated hIL-2 on streptavidin tips
T1 construct: The construct used for biotinylated hIL-2 is not described; probably as the soluble hIL-2 (residues 1-133) with tags; also called biotinylated hIL-2; immobilized hIL-2; not shown: tags of the biotinylated hIL-2 are not described (the biotin acceptor peptide is told only for hIL-2Ra and hIL-2Rb)
Method: (§1) Less than 5 signal units (nm) of receptor was immobilized to minimize mass transfer effects. […] Surface regeneration for all interactions was conducted using a 15 second exposure to 0.1 M glycine pH 3.0. Experiments were carried out in PB SA (phosphate-buffered saline, pH 7.3 plus 0.1% bovine serum albumin (BSA, Thermo Fisher Scientific)) at 25° C. Data was visualized and processed using the Octet® Data Analysis software version 7.1 (Molecular Devices). Equilibrium titration curve fitting and KD value determination was implemented using GraphPad Prism, assuming all binding interactions to be first order.

[3] = biological target: T1, biotinylated human IL-2 immobilized on …; assay: as above; remark: listed apart in the source
Method: as §1

T1 sequence (P60568 21-153): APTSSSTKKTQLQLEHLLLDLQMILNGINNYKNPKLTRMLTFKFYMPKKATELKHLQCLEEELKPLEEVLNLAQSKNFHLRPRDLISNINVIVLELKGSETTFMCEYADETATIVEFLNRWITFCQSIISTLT
Sequence of human IL-2 (residues 1-133) displayed on the surface of yeast (P60568 21-153 limits assumed): as the sequence (P60568 21-153) above

B1: recombinant F5111 antibody (human IgG1 lambda) (antibody, V domains shown)
VH: QLQLQESGPGLVKPSQTLSLTCTVSGGSISSGGYYWSWIRQHPGKGLEWIGYIYYSGSTYYNPSLKSRVTISVDTSKNQFSLKLSSVTAADTAVYYCARTPTVTGDWFDPWGRGTLVTVSS
VL: SNFMLTQPHSVSESPGKTVTISCTRSSGSIASNYVQWYQQRPGSSPTTVIYEDNQRPSGVPDRFSGSIDSSSNSASLTISGLKTEDEADYYCQSYDSSNVVFGGGTKLTVLG
notes: Expressed in HEK 293F cells; also called F5111 Ab; monoclonal antibody F5111
Kd [1]: 0.42 nM | EC50 (read off the curve) [2]: ~600 pM | EC50 (read off the curve) [3]: ~3 nM
